# B1: Lysozyme C, P61626 (parent)
# chain: MKALIVLGLVLLSVTVQGKVFERCELARTLKRLGMDGYRGISLANWMCLAKWESGYNTRATNYNAGDRSTDYGIFQINSRYWCNDGKTPGAVNACHLSCSALLQDNIADAVACAKRVVRDPQGIRAWVAWRNRCQNRDVRQYVQGCGV
# Variants of: B1
# Conditions: Homo sapiens; pH 2.51; Thermal; DSC; glycine 0.05 M; reversible: yes; structure 1LZ1; whole UniProt chain shown
Variant,Tm [°C],heat capacity change of unfolding [kcal/mol/K],unfolding enthalpy (calorimetric) [kcal/mol],unfolding enthalpy (van 't Hoff) [kcal/mol]
MKALIVLGLVLLSVTVQGKVFERCELARTLKRLGMDGYRGISLANWMCLAKWESGYNTRATNYNAGDRSTDYGIFQINSRYWCNDGKTPGAVNACHLSCAALLQDNIADAVACAKRVVRDPQGIRAWVAWRNRCQNRDVRQYVQGCGV,62.5,1.41,111,117
MKALIVLGLVLLSVTVQGKVFERCELARTLKRLGMDGYRGISLANWMCLAKWESGYNTRATNYNAGDRATDYGIFQINSRYWCNDGKTPGAVNACHLSCSALLQDNIADAVACAKRVVRDPQGIRAWVAWRNRCQNRDVRQYVQGCGV,61,1.48,106,113
MKALIVLGLVLLSVTVQGKVFERCELARTLKRLGMDGYRGISLANWMCLAKWESGYNTRATNYNAGDRSTDYGIFQINARYWCNDGKTPGAVNACHLSCSALLQDNIADAVACAKRVVRDPQGIRAWVAWRNRCQNRDVRQYVQGCGV,57,1.1,99,103

# Same assay, conditions: Homo sapiens; pH 2.7; Thermal; DSC; glycine 0.05 M; reversible: yes; structure 1LZ1; whole UniProt chain shown
Variant,Tm [°C],"change of melting temperature, mutant - wild type (higher = more stable) [°C]",heat capacity change of unfolding [kcal/mol/K],unfolding enthalpy (calorimetric) [kcal/mol]
MKALIVLGLVLLSVTVQGKVFERCELARTLKRLGMDGYRGISLANWMCLAKWESGYNTRATNYNAGDRSTDYGIFQINSRYWCNDGKTPGAVNACHLSCAALLQDNIADAVACAKRVVRDPQGIRAWVAWRNRCQNRDVRQYVQGCGV,66,1.1,1.27,114
MKALIVLGLVLLSVTVQGKVFERCELARTLKRLGMDGYRGISLANWMCLAKWESGYNTRATNYNAGDRSTDYGIFQINSRYWCNDGKTPGAVNACHLACSALLQDNIADAVACAKRVVRDPQGIRAWVAWRNRCQNRDVRQYVQGCGV,66.3,1.4,1.43,116
MKALIVLGLVLLSVTVQGKVFERCELARTLKRLGMDGYRGIALANWMCLAKWESGYNTRATNYNAGDRSTDYGIFQINSRYWCNDGKTPGAVNACHLSCSALLQDNIADAVACAKRVVRDPQGIRAWVAWRNRCQNRDVRQYVQGCGV,63.3,-1.6,1.51,110
MKALIVLGLVLLSVTVQGKVFERCELARTLKRLGMDGYRGISLANWMCLAKWEAGYNTRATNYNAGDRSTDYGIFQINSRYWCNDGKTPGAVNACHLSCSALLQDNIADAVACAKRVVRDPQGIRAWVAWRNRCQNRDVRQYVQGCGV,61.4,-3.5,1.31,109
MKALIVLGLVLLSVTVQGKVFERCELARTLKRLGMDGYRGISLANWMCLAKWESGYNTRATNYNAGDRATDYGIFQINSRYWCNDGKTPGAVNACHLSCSALLQDNIADAVACAKRVVRDPQGIRAWVAWRNRCQNRDVRQYVQGCGV,64.2,-0.7,1.43,112
MKALIVLGLVLLSVTVQGKVFERCELARTLKRLGMDGYRGISLANWMCLAKWESGYNTRATNYNAGDRSTDYGIFQINARYWCNDGKTPGAVNACHLSCSALLQDNIADAVACAKRVVRDPQGIRAWVAWRNRCQNRDVRQYVQGCGV,60.6,-4.3,1.27,109

# Same assay, conditions: Homo sapiens; pH 2.85; Thermal; DSC; glycine 0.05 M; reversible: yes; structure 1LZ1; whole UniProt chain shown
Variant,Tm [°C],heat capacity change of unfolding [kcal/mol/K],unfolding enthalpy (calorimetric) [kcal/mol],unfolding enthalpy (van 't Hoff) [kcal/mol]
MKALIVLGLVLLSVTVQGKVFERCELARTLKRLGMDGYRGISLANWMCLAKWESGYNTRATNYNAGDRSTDYGIFQINSRYWCNDGKTPGAVNACHLSCAALLQDNIADAVACAKRVVRDPQGIRAWVAWRNRCQNRDVRQYVQGCGV,68.9,1.2,120,128
MKALIVLGLVLLSVTVQGKVFERCELARTLKRLGMDGYRGISLANWMCLAKWESGYNTRATNYNAGDRSTDYGIFQINSRYWCNDGKTPGAVNACHLACSALLQDNIADAVACAKRVVRDPQGIRAWVAWRNRCQNRDVRQYVQGCGV,69.1,1.34,122,129

# Same assay, conditions: Homo sapiens; pH 3.12; Thermal; DSC; glycine 0.05 M; reversible: yes; structure 1LZ1; whole UniProt chain shown
Variant,Tm [°C],heat capacity change of unfolding [kcal/mol/K],unfolding enthalpy (calorimetric) [kcal/mol],unfolding enthalpy (van 't Hoff) [kcal/mol]
MKALIVLGLVLLSVTVQGKVFERCELARTLKRLGMDGYRGISLANWMCLAKWESGYNTRATNYNAGDRSTDYGIFQINSRYWCNDGKTPGAVNACHLSCAALLQDNIADAVACAKRVVRDPQGIRAWVAWRNRCQNRDVRQYVQGCGV,73.5,1.41,125,133

# Same assay, conditions: Homo sapiens; pH 2.5; Thermal; DSC; glycine 0.05 M; reversible: yes; structure 1LZ1; whole UniProt chain shown
Variant,Tm [°C],heat capacity change of unfolding [kcal/mol/K],unfolding enthalpy (calorimetric) [kcal/mol],unfolding enthalpy (van 't Hoff) [kcal/mol]
MKALIVLGLVLLSVTVQGKVFERCELARTLKRLGMDGYRGISLANWMCLAKWESGYNTRATNYNAGDRSTDYGIFQINSRYWCNDGKTPGAVNACHLACSALLQDNIADAVACAKRVVRDPQGIRAWVAWRNRCQNRDVRQYVQGCGV,62.7,1.41,113,120

# Same assay, conditions: Homo sapiens; pH 2.69; Thermal; DSC; glycine 0.05 M; reversible: yes; structure 1LZ1; whole UniProt chain shown
Variant,Tm [°C],heat capacity change of unfolding [kcal/mol/K],unfolding enthalpy (calorimetric) [kcal/mol],unfolding enthalpy (van 't Hoff) [kcal/mol]
MKALIVLGLVLLSVTVQGKVFERCELARTLKRLGMDGYRGISLANWMCLAKWESGYNTRATNYNAGDRSTDYGIFQINSRYWCNDGKTPGAVNACHLACSALLQDNIADAVACAKRVVRDPQGIRAWVAWRNRCQNRDVRQYVQGCGV,66.2,1.34,119,126
MKALIVLGLVLLSVTVQGKVFERCELARTLKRLGMDGYRGISLANWMCLAKWESGYNTRATNYNAGDRATDYGIFQINSRYWCNDGKTPGAVNACHLSCSALLQDNIADAVACAKRVVRDPQGIRAWVAWRNRCQNRDVRQYVQGCGV,64.2,1.43,111,118

# Same assay, conditions: Homo sapiens; pH 3.11; Thermal; DSC; glycine 0.05 M; reversible: yes; structure 1LZ1; whole UniProt chain shown
Variant,Tm [°C],heat capacity change of unfolding [kcal/mol/K],unfolding enthalpy (calorimetric) [kcal/mol],unfolding enthalpy (van 't Hoff) [kcal/mol]
MKALIVLGLVLLSVTVQGKVFERCELARTLKRLGMDGYRGISLANWMCLAKWESGYNTRATNYNAGDRSTDYGIFQINSRYWCNDGKTPGAVNACHLACSALLQDNIADAVACAKRVVRDPQGIRAWVAWRNRCQNRDVRQYVQGCGV,73.6,1.39,129,135
MKALIVLGLVLLSVTVQGKVFERCELARTLKRLGMDGYRGISLANWMCLAKWESGYNTRATNYNAGDRATDYGIFQINSRYWCNDGKTPGAVNACHLSCSALLQDNIADAVACAKRVVRDPQGIRAWVAWRNRCQNRDVRQYVQGCGV,70.8,1.36,120,126

# Same assay, conditions: Homo sapiens; pH 2.46; Thermal; DSC; glycine 0.05 M; reversible: yes; structure 1LZ1; whole UniProt chain shown
Variant,Tm [°C],heat capacity change of unfolding [kcal/mol/K],unfolding enthalpy (calorimetric) [kcal/mol],unfolding enthalpy (van 't Hoff) [kcal/mol]
MKALIVLGLVLLSVTVQGKVFERCELARTLKRLGMDGYRGIALANWMCLAKWESGYNTRATNYNAGDRSTDYGIFQINSRYWCNDGKTPGAVNACHLSCSALLQDNIADAVACAKRVVRDPQGIRAWVAWRNRCQNRDVRQYVQGCGV,58.8,1.46,101,105

# Same assay, conditions: Homo sapiens; pH 2.66; Thermal; DSC; glycine 0.05 M; reversible: yes; structure 1LZ1; whole UniProt chain shown
Variant,Tm [°C],heat capacity change of unfolding [kcal/mol/K],unfolding enthalpy (calorimetric) [kcal/mol],unfolding enthalpy (van 't Hoff) [kcal/mol]
MKALIVLGLVLLSVTVQGKVFERCELARTLKRLGMDGYRGIALANWMCLAKWESGYNTRATNYNAGDRSTDYGIFQINSRYWCNDGKTPGAVNACHLSCSALLQDNIADAVACAKRVVRDPQGIRAWVAWRNRCQNRDVRQYVQGCGV,62.5,1.67,106,111

# Same assay, conditions: Homo sapiens; pH 2.82; Thermal; DSC; glycine 0.05 M; reversible: yes; structure 1LZ1; whole UniProt chain shown
Variant,Tm [°C],heat capacity change of unfolding [kcal/mol/K],unfolding enthalpy (calorimetric) [kcal/mol],unfolding enthalpy (van 't Hoff) [kcal/mol]
MKALIVLGLVLLSVTVQGKVFERCELARTLKRLGMDGYRGIALANWMCLAKWESGYNTRATNYNAGDRSTDYGIFQINSRYWCNDGKTPGAVNACHLSCSALLQDNIADAVACAKRVVRDPQGIRAWVAWRNRCQNRDVRQYVQGCGV,65.7,1.55,112,117

# Same assay, conditions: Homo sapiens; pH 3.09; Thermal; DSC; glycine 0.05 M; reversible: yes; structure 1LZ1; whole UniProt chain shown
Variant,Tm [°C],heat capacity change of unfolding [kcal/mol/K],unfolding enthalpy (calorimetric) [kcal/mol],unfolding enthalpy (van 't Hoff) [kcal/mol]
MKALIVLGLVLLSVTVQGKVFERCELARTLKRLGMDGYRGIALANWMCLAKWESGYNTRATNYNAGDRSTDYGIFQINSRYWCNDGKTPGAVNACHLSCSALLQDNIADAVACAKRVVRDPQGIRAWVAWRNRCQNRDVRQYVQGCGV,70.3,1.41,118,123
MKALIVLGLVLLSVTVQGKVFERCELARTLKRLGMDGYRGISLANWMCLAKWEAGYNTRATNYNAGDRSTDYGIFQINSRYWCNDGKTPGAVNACHLSCSALLQDNIADAVACAKRVVRDPQGIRAWVAWRNRCQNRDVRQYVQGCGV,68.7,1.22,114,119

# Same assay, conditions: Homo sapiens; pH 2.47; Thermal; DSC; glycine 0.05 M; reversible: yes; structure 1LZ1; whole UniProt chain shown
Variant,Tm [°C],heat capacity change of unfolding [kcal/mol/K],unfolding enthalpy (calorimetric) [kcal/mol],unfolding enthalpy (van 't Hoff) [kcal/mol]
MKALIVLGLVLLSVTVQGKVFERCELARTLKRLGMDGYRGISLANWMCLAKWEAGYNTRATNYNAGDRSTDYGIFQINSRYWCNDGKTPGAVNACHLSCSALLQDNIADAVACAKRVVRDPQGIRAWVAWRNRCQNRDVRQYVQGCGV,57.1,1.31,98.5,103

# Same assay, conditions: Homo sapiens; pH 2.67; Thermal; DSC; glycine 0.05 M; reversible: yes; structure 1LZ1; whole UniProt chain shown
Variant,Tm [°C],heat capacity change of unfolding [kcal/mol/K],unfolding enthalpy (calorimetric) [kcal/mol],unfolding enthalpy (van 't Hoff) [kcal/mol]
MKALIVLGLVLLSVTVQGKVFERCELARTLKRLGMDGYRGISLANWMCLAKWEAGYNTRATNYNAGDRSTDYGIFQINSRYWCNDGKTPGAVNACHLSCSALLQDNIADAVACAKRVVRDPQGIRAWVAWRNRCQNRDVRQYVQGCGV,60.8,1.31,104,109

# Same assay, conditions: Homo sapiens; pH 2.84; Thermal; DSC; glycine 0.05 M; reversible: yes; structure 1LZ1; whole UniProt chain shown
Variant,Tm [°C],heat capacity change of unfolding [kcal/mol/K],unfolding enthalpy (calorimetric) [kcal/mol],unfolding enthalpy (van 't Hoff) [kcal/mol]
MKALIVLGLVLLSVTVQGKVFERCELARTLKRLGMDGYRGISLANWMCLAKWEAGYNTRATNYNAGDRSTDYGIFQINSRYWCNDGKTPGAVNACHLSCSALLQDNIADAVACAKRVVRDPQGIRAWVAWRNRCQNRDVRQYVQGCGV,64,1.24,107,113
MKALIVLGLVLLSVTVQGKVFERCELARTLKRLGMDGYRGISLANWMCLAKWESGYNTRATNYNAGDRSTDYGIFQINARYWCNDGKTPGAVNACHLSCSALLQDNIADAVACAKRVVRDPQGIRAWVAWRNRCQNRDVRQYVQGCGV,63.6,1.15,107,111

# Same assay, conditions: Homo sapiens; pH 2.86; Thermal; DSC; glycine 0.05 M; reversible: yes; structure 1LZ1; whole UniProt chain shown
Variant,Tm [°C],heat capacity change of unfolding [kcal/mol/K],unfolding enthalpy (calorimetric) [kcal/mol],unfolding enthalpy (van 't Hoff) [kcal/mol]
MKALIVLGLVLLSVTVQGKVFERCELARTLKRLGMDGYRGISLANWMCLAKWESGYNTRATNYNAGDRATDYGIFQINSRYWCNDGKTPGAVNACHLSCSALLQDNIADAVACAKRVVRDPQGIRAWVAWRNRCQNRDVRQYVQGCGV,66.7,1.55,115,121

# Same assay, conditions: Homo sapiens; pH 3.1; Thermal; DSC; glycine 0.05 M; reversible: yes; structure 1LZ1; whole UniProt chain shown
Variant,Tm [°C],heat capacity change of unfolding [kcal/mol/K],unfolding enthalpy (calorimetric) [kcal/mol],unfolding enthalpy (van 't Hoff) [kcal/mol]
MKALIVLGLVLLSVTVQGKVFERCELARTLKRLGMDGYRGISLANWMCLAKWESGYNTRATNYNAGDRSTDYGIFQINARYWCNDGKTPGAVNACHLSCSALLQDNIADAVACAKRVVRDPQGIRAWVAWRNRCQNRDVRQYVQGCGV,68.3,1.31,113,118
